Assay results published in patent US20190225669A1 (ACCELERON PHARMA, published 2019).
Like-named read-outs stand apart in the source and are kept apart here.

B1: ALK3-Fc homodimer (Fc fusion, UniProt P36894 24-152, looked up, not shown: a dimerising Fc or GST)
chain: QNLDSMLHGTGMKSDSDQKKSENGVTLAPEDTLPFLKCYCSGHCPDDAINNTCITNGHCFAIIEEDDQGETTLASGCMKYEGSDFQCKDSPKAQLRRTIECCRTNLCNQYLQPTLPPVVIGPFFDGSIR
notes: extracellular domain

Legend:
Experiment in all cases: Biacore SPR
ActRIIB-Fc homodimer [1] = target: T1, ActRIIB-Fc homodimer (UniProt Q13705 19-137)
T1 construct: extracellular domain; also called ActRIIB homodimer
T1 sequence (looked up): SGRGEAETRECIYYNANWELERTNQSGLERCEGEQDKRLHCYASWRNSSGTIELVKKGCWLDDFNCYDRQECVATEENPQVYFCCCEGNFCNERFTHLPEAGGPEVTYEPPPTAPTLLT
Method: (§1) Ligands were injected and allowed to flow over the captured receptor protein.

ActRIIB-Fc homodimer [2] = target: T1, ActRIIB-Fc homodimer; remark: listed apart in the source
Method: as §1

ALK3-Fc homodimer [3] = target: B1
Method: as §1

ActRIIB-Fc homodimer [4] = target: T1, ActRIIB-Fc homodimer; remark: listed apart in the source
Method: as §1

ActRIIB-Fc homodimer [5] = target: T1, ActRIIB-Fc homodimer; remark: listed apart in the source
Method: as §1

ActRIIB-Fc homodimer [6] = target: T1, ActRIIB-Fc homodimer; remark: listed apart in the source
Method: as §1

ActRIIA-Fc homodimer = target: T2, ActRIIA-Fc homodimer (UniProt P27037 20-135)
T2 construct: extracellular domain
Method: as §1

BMPRII-Fc homodimer [7] = target: T3, BMPRII-Fc homodimer (UniProt Q13873 27-150)
T3 construct: extracellular domain
T3 sequence (looked up): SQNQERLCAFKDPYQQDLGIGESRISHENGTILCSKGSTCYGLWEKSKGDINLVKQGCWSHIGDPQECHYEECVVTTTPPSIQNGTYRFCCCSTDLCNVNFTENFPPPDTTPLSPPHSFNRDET
Method: A Biacore™-based binding assay was used to compare ligand binding selectivity of the BMPRII-Fc:ALK2-Fc heterodimeric complex described above with that of BMPRII-Fc and ALK2-Fc homodimeric complexes. […] Ligands were injected and allowed to flow over the captured receptor protein.

BMPRII-Fc homodimer [8] = target: T3, BMPRII-Fc homodimer; remark: listed apart in the source
Method: as §1

BMPRII-Fc homodimer [9] = target: T3, BMPRII-Fc homodimer; remark: listed apart in the source
Method: as §1

BMPRII-Fc homodimer [10] = target: T3, BMPRII-Fc homodimer; remark: listed apart in the source
Method: as §1

ALK3-Fc homodimer [11] = target: B1; remark: listed apart in the source
Method: as §1

BMP5 [12] = target: T4, BMP5 (UniProt P22003 317-454, limits assumed)
T4 sequence (looked up): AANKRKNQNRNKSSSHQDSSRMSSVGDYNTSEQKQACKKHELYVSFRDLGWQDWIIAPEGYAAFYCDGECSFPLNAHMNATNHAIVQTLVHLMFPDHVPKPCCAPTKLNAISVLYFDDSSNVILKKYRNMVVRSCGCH
Method: as §1

BMP6 [13] = target: T5, BMP6 (UniProt P22004 382-513, limits assumed)
T5 sequence (looked up): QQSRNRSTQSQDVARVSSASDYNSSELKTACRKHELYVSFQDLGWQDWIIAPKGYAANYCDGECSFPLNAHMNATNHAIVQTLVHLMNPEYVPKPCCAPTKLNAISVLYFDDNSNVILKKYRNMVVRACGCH
Method: as §1

BMP5 [14] = target: T4, BMP5; remark: listed apart in the source
Method: as §1

BMP6 [15] = target: T5, BMP6; remark: listed apart in the source
Method: as §1

T2 sequence (P27037 20-135): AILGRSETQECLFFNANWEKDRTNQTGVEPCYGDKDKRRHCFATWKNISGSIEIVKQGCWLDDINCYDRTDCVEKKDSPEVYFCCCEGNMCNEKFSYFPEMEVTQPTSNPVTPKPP

| Binder | Kd (ActRIIB-Fc homodimer [1]) | koff (ActRIIB-Fc homodimer [1]) | kon (ActRIIB-Fc homodimer [1]) | Kd (ActRIIB-Fc homodimer [2]) | koff (ActRIIB-Fc homodimer [2]) | kon (ActRIIB-Fc homodimer [2]) | binding result (ALK3-Fc homodimer [3]) | Kd (ActRIIB-Fc homodimer [4]) | koff (ActRIIB-Fc homodimer [4]) | kon (ActRIIB-Fc homodimer [4]) | Kd (ActRIIB-Fc homodimer [5]) | koff (ActRIIB-Fc homodimer [5]) | kon (ActRIIB-Fc homodimer [5]) | Kd (ActRIIB-Fc homodimer [6]) | koff (ActRIIB-Fc homodimer [6]) | kon (ActRIIB-Fc homodimer [6]) | Kd (ActRIIA-Fc homodimer) | koff (ActRIIA-Fc homodimer) | kon (ActRIIA-Fc homodimer) | Kd (BMPRII-Fc homodimer [7]) | also measured |
| --- | --- | --- | --- | --- | --- | --- | --- | --- | --- | --- | --- | --- | --- | --- | --- | --- | --- | --- | --- | --- | --- |
| activin B (ligand, UniProt P09529 293-407, looked up) GLECDGRTNLCCRQQFFIDFRLIGWNDWIIAPTGYYGNYCEGSCPAYLAGVPGSASSFHTAVVNQYRMRGLNPGTVNSCCIPTKLSTMSMLYFDDEYNIVKRDVPNMIVEECGCA | 0.02 nM | 0.0001 s⁻¹ | 5.1e+06 M⁻¹ s⁻¹ | 0.02 nM | 0.0001 s⁻¹ | 5.1e+06 M⁻¹ s⁻¹ | no binding | 0.008 nM | 0.00016 s⁻¹ | 1.5e+07 M⁻¹ s⁻¹ | 0.028 nM | 0.00011 s⁻¹ | 3.8e+06 M⁻¹ s⁻¹ | 0.02 nM | 0.0001 s⁻¹ | 5.1e+06 M⁻¹ s⁻¹ | 0.01 nM | 0.00011 s⁻¹ | 1.1e+07 M⁻¹ s⁻¹ | 2.6 nM | koff (BMPRII-Fc homodimer [7]): 0.0049 s⁻¹; kon (BMPRII-Fc homodimer [7]): 1.9e+06 M⁻¹ s⁻¹; Kd (BMPRII-Fc homodimer [8]): 3.8 nM; koff (BMPRII-Fc homodimer [8]): 0.075 s⁻¹; kon (BMPRII-Fc homodimer [8]): 2e+07 M⁻¹ s⁻¹; Kd (BMPRII-Fc homodimer [9]): 3.8 nM; koff (BMPRII-Fc homodimer [9]): 0.075 s⁻¹; kon (BMPRII-Fc homodimer [9]): 2e+07 M⁻¹ s⁻¹ |
| BMP10 (ligand, UniProt O95393 317-424, looked up) NAKGNYCKRTPLYIDFKEIGWDSWIIAPPGYEAYECRGVCNYPLAEHLTPTKHAIIQALVHLKNSQKASKACCVPTKLEPISILYLDKGVVTYKFKYEGMAVSECGCR | 0.011 nM | 0.00026 s⁻¹ | 2.3e+07 M⁻¹ s⁻¹ | 0.004 nM | 0.0002 s⁻¹ | 5.9e+07 M⁻¹ s⁻¹ | no binding | 0.025 nM | 0.00015 s⁻¹ | 5.9e+06 M⁻¹ s⁻¹ | 0.005 nM | 0.00028 s⁻¹ | 5.4e+07 M⁻¹ s⁻¹ | 0.018 nM | 0.00038 s⁻¹ | 2.1e+07 M⁻¹ s⁻¹ | 0.085 nM | 0.0025 s⁻¹ | 2.9e+07 M⁻¹ s⁻¹ | 0.13 nM | Kd (BMPRII-Fc homodimer [10]): 0.1 nM; koff (BMPRII-Fc homodimer [10]): 0.0025 s⁻¹; kon (BMPRII-Fc homodimer [10]): 2.6e+07 M⁻¹ s⁻¹; koff (BMPRII-Fc homodimer [7]): 0.005 s⁻¹; kon (BMPRII-Fc homodimer [7]): 3.8e+07 M⁻¹ s⁻¹; Kd (BMPRII-Fc homodimer [8]): 0.1 nM; koff (BMPRII-Fc homodimer [8]): 0.0025 s⁻¹; kon (BMPRII-Fc homodimer [8]): 2.6e+07 M⁻¹ s⁻¹; Kd (BMPRII-Fc homodimer [9]): 0.1 nM; koff (BMPRII-Fc homodimer [9]): 0.0025 s⁻¹; kon (BMPRII-Fc homodimer [9]): 2.6e+07 M⁻¹ s⁻¹ |
| GDF3 (ligand, UniProt Q9NR23 251-364, looked up) AAIPVPKLSCKNLCHRHQLFINFRDLGWHKWIIAPKGFMANYCHGECPFSLTISLNSSNYAFMQALMHAVDPEIPQAVCIPTKLSPISMLYQDNNDNVILRHYEDMVVDECGCG | 1.5 nM | 0.0022 s⁻¹ | 1.4e+06 M⁻¹ s⁻¹ | 1.4 nM | 0.0023 s⁻¹ | 1.6e+06 M⁻¹ s⁻¹ | no binding | 1.5 nM | 0.0022 s⁻¹ | 1.4e+06 M⁻¹ s⁻¹ | 1.7 nM | 0.002 s⁻¹ | 1.2e+06 M⁻¹ s⁻¹ | 3.9 nM | 0.0018 s⁻¹ | 470000 M⁻¹ s⁻¹ | 2.4 nM | 0.0036 s⁻¹ | 1.5e+06 M⁻¹ s⁻¹ |  |  |
| GDF5 (ligand, UniProt P43026 382-501, looked up, also called BMP14) APLATRQGKRPSKNLKARCSRKALHVNFKDMGWDDWIIAPLEYEAFHCEGLCEFPLRSHLEPTNHAVIQTLMNSMDPESTPPTCCVPTRLSPISILFIDSANNVVYKQYEDMVVESCGCR |  |  |  |  |  |  |  |  |  |  |  |  |  |  |  |  |  |  |  |  | Kd (ALK3-Fc homodimer [3]): 22 nM; koff (ALK3-Fc homodimer [3]): 0.011 s⁻¹; kon (ALK3-Fc homodimer [3]): 480000 M⁻¹ s⁻¹; Kd (ALK3-Fc homodimer [11]): 22 nM; koff (ALK3-Fc homodimer [11]): 0.011 s⁻¹; kon (ALK3-Fc homodimer [11]): 430000 M⁻¹ s⁻¹ |
| GDF11 (ligand, UniProt O95390 299-407, looked up, also called BMP11) NLGLDCDEHSSESRCCRYPLTVDFEAFGWDWIIAPKRYKANYCSGQCEYMFMQKYPHTHLVQQANPRGSAGPCCTPTKMSPINMLYFNDKQQIIYGKIPGMVVDRCGCS | 0.002 nM | 0.00011 s⁻¹ | 5e+07 M⁻¹ s⁻¹ | 0.002 nM | 0.00011 s⁻¹ | 5e+07 M⁻¹ s⁻¹ | no binding | 0.002 nM | 0.00015 s⁻¹ | 9.6e+07 M⁻¹ s⁻¹ | 0.11 nM | 0.00022 s⁻¹ | 2e+06 M⁻¹ s⁻¹ | 0.074 nM | 0.00014 s⁻¹ | 1.9e+06 M⁻¹ s⁻¹ | 0.013 nM | 0.00092 s⁻¹ | 7.3e+07 M⁻¹ s⁻¹ |  |  |
| B1 |  |  |  |  |  |  |  |  |  |  |  |  |  |  |  |  |  |  |  |  | Kd (BMP5 [12]): 70 nM; koff (BMP5 [12]): 0.002 s⁻¹; kon (BMP5 [12]): 29000 M⁻¹ s⁻¹; Kd (BMP6 [13]): 35 nM; koff (BMP6 [13]): 0.0049 s⁻¹; kon (BMP6 [13]): 140000 M⁻¹ s⁻¹; Kd (BMP5 [14]): 70 nM; koff (BMP5 [14]): 0.0023 s⁻¹; kon (BMP5 [14]): 29000 M⁻¹ s⁻¹; Kd (BMP6 [15]): 35 nM; koff (BMP6 [15]): 0.0049 s⁻¹; kon (BMP6 [15]): 140000 M⁻¹ s⁻¹ |
